Measurements published in patent US20150038408A1 (University of Washington, published 2015).
Like-named read-outs stand apart in the source and are kept apart here.

B1: HB36.4_s4_E11 (designed binder)
chain: MSNAMDGQQLNRLLLEWIGAWDPFGLGKDAYDVEADAVLKAVYETNSAFDLAMRIHWIYNFAFKRKIPFVHAQKLARRLLELKQAASSPLP
B2: HB80.3_s4_E94 (designed binder)
chain: ASTRGSGRPWKFSENVAFELALYFTNKDTPDRWAKVARYVKGRTPEEVKKHYE
B3: HB80.3_s4_E82 (designed binder)
chain: MASTRGSGRPWKFSENVAFEIALSFTNKDTPDRWAKVARYVRGRTPEEVKKHYE

How the values were obtained:
[1] = target: T1, A/South Carolina/1/1918 (H1N1) hemagglutinin ectodomain (Influenza A virus A/South …); assay: yeast surface display titration
[2] = target: T1, A/South Carolina/1/1918 (H1N1) …; assay: yeast surface display titration; remark: listed apart in the source

| Binder | binding result [1] | binding result [2] |
| --- | --- | --- |
| B1 | binds |  |
| B2 |  | binds |
| B3 |  | binds |
